Assay results from patent US20140178405A1.

Assays:
Experiment in all cases: cell-based or functional assay
[1] = target: native VP6 of bovine rotavirus C486 (SbI; P[1]G6), in the virus (bovine rotavirus strain C486)
[2] = target: native VP6 of bovine rotavirus IND (SbI; P[5]G6), in the virus (bovine rotavirus strain IND)
[3] = target: native VP6 of equine rotavirus H2 (Sb no I, no II; P[12]G3), in the virus (equine rotavirus strain H2)
[4] = target: native VP6 of human rotavirus Wa (SbII; P[8]G1), in the virus (human rotavirus strain Wa)
Chain of native VP6 of human rotavirus Wa (SbII; P[8]G1), in the virus (human rotavirus strain Wa) (P03530 whole entry): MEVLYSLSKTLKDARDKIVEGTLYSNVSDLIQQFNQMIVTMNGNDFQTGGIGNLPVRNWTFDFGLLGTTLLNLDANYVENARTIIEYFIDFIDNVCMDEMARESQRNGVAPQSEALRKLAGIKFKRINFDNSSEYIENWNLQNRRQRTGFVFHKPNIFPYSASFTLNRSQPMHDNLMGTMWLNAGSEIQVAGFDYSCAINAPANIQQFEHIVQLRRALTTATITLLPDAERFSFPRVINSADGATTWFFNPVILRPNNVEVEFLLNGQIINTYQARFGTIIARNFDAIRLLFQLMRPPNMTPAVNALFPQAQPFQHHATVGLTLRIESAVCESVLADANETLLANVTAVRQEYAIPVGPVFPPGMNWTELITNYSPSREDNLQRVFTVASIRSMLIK

Chain of native VP6 of equine rotavirus H2 (Sb no I, no II; P[12]G3), in the virus (equine rotavirus strain H2) (P16488 whole entry): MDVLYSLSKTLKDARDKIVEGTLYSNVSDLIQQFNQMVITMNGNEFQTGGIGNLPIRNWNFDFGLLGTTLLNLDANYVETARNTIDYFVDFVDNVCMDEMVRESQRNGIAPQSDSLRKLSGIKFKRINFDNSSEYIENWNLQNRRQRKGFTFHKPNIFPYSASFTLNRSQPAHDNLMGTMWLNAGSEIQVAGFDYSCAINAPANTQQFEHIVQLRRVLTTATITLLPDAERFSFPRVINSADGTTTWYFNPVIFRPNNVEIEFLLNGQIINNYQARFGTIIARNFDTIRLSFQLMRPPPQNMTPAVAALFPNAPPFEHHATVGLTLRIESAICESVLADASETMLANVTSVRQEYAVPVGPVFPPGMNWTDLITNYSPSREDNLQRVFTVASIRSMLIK

Row | Molecule | VN antibody titre (inverse of the highest VHH dilution that reduces >80% of the FFU per 100 FFU), VHH at 2 mg/ml (titre (reciprocal dilution)) [1] | VN antibody titre (inverse of the highest VHH dilution that reduces >80% of the FFU per 100 FFU), VHH at 2 mg/ml (titre (reciprocal dilution)) [2] | VN antibody titre (inverse of the highest VHH dilution that reduces >80% of the FFU per 100 FFU), VHH at 2 mg/ml (titre (reciprocal dilution)) [3] | VN antibody titre (inverse of the highest VHH dilution that reduces >80% of the FFU per 100 FFU), VHH at 2 mg/ml (titre (reciprocal dilution)) [4] | also measured
1 | non-related VHH, directed against a cellular protein |  |  |  |  | VN antibody titre (inverse of the highest VHH dilution that reduces >80% of the FFU per 100 FFU), VHH at 0.4 mg/ml (titre (reciprocal dilution)) [1]: < 8; VN antibody titre (inverse of the highest VHH dilution that reduces >80% of the FFU per 100 FFU), VHH at 0.4 mg/ml (titre (reciprocal dilution)) [2]: < 8; VN antibody titre (inverse of the highest VHH dilution that reduces >80% of the FFU per 100 FFU), VHH at 0.4 mg/ml (titre (reciprocal dilution)) [3]: < 8; VN antibody titre (inverse of the highest VHH dilution that reduces >80% of the FFU per 100 FFU), VHH at 0.4 mg/ml (titre (reciprocal dilution)) [4]: < 8
2 | VHH 2KA4 anti VP6 (VHH) VHH: DVQLQASGGGLVQAGDSLRLSCVQSGPGRYGVGWFRQAPGKEREFVAAVSGSGGSKYYGDSVQGRFTISKDDAKNTVYLQMNNLKPEDTAVYYCAVRRTYSGSNLWHRSDEYDSWGPGTQVTVSS | < 8 | < 8 | < 8 | < 8 | 
3 | VHH 2KD1 anti VP6 (VHH) VHH: DVQLQASGGGFVQPGDSLSLSCAASGGTFSSYSIGWFRQGPGKEREFVATISSSDSPWYGEPAKGRFTVARVNAKNTAYLHLNRLKPEDTATYYCAAGSVQHMANENEYVYWGQGTQVTVSS | 2048 | 2048 | 512 | 8192 | 
4 | VHH 3A6 anti VP6 (VHH) VHH: EVQLQASGGGFVQPGGSLSLSCAVSGRSFGDDVMGWFRQAPGKEREFVSAIRFRSNSPFYGDPGKGRFTIARDSAKDTVYLHMYRLRPDDTAVYYCAVGDGALVNRASDYTYWGQGTQVTVSS | 1024 | 1024 | 128 | 2048 | 
5 | VHH 3B2 anti VP6 (VHH) VHH: DVQLQASGGGLAQAGDSLTLSCAASGRTFSGYVVGWFRQAPGAEREFVGAIRWSEDSTWYGDSMKGRILISRNNIKNTVNLQMFNLKPEDTAVYVCAAGAGDIVTTETSYNYWGRGTQVTVSS | 1024 | 1024 | 512 | 8192 | 
6 | bivalent VHH biv2KA4 (bispecific antibody) MADVQLQASGGGLVQAGDSLRLSCVQSGPGRYGVGWFRQAPGKEREFVAAVSGSGGSKYYGDSVQGRFTISKDDAKNTVYLQMNNLKPEDTAVYYCAVRRTYSGSNLWHRSDEYDSWGPGTQVTVSSSGPSTPPRPSPSTPPSDVQLQASGGGLVQAGDSLRLSCVQSGPGRYGVGWFRQAPGKEREFVAAVSGSGGSKYYGDSVQGRFTISKDDAKNTVYLQMNNLKPEDTAVYYCAVRRTYSGSNLWHRSDEYDSWGPGTQVTVSSGRHHHHHH |  |  |  |  | VN antibody titre (inverse of the highest VHH dilution that reduces >80% of the FFU per 100 FFU), VHH at 0.5 mg/ml (titre (reciprocal dilution)) [1]: < 8; VN antibody titre (inverse of the highest VHH dilution that reduces >80% of the FFU per 100 FFU), VHH at 0.5 mg/ml (titre (reciprocal dilution)) [2]: < 8; VN antibody titre (inverse of the highest VHH dilution that reduces >80% of the FFU per 100 FFU), VHH at 0.5 mg/ml (titre (reciprocal dilution)) [3]: < 8; VN antibody titre (inverse of the highest VHH dilution that reduces >80% of the FFU per 100 FFU), VHH at 0.5 mg/ml (titre (reciprocal dilution)) [4]: 32
